Patent US20150160235A1 (Takeda / Millennium, published 2015)

Molecular target: T1, oxMIF (oxidized macrophage migration inhibitory factor) in human tissue cryosections (human, UniProt P14174 2-115)
T1 construct: mature; Native oxMIF isoform in unfixed, air-dried cryosections of patient tissue (kidney, pancreas, breast, brain, lung, colon); also called oxidized MIF
Test: IHC, biotinylated RAM9 5 µg/ml on unfixed kidney cryosections, streptavidin-HRP/DAB
Protocol: The kidney tissue slides were prepared according to state of the art techniques known to experts, either fresh frozen or OCT embedded, sectioned at 10 μm and stored at <=−80° C. after sectioning. All following steps were done at ambient temperature. The cryo-sections were air dried for 30 min and unspecific binding was blocked with blocking buffer (20% Normal Goat Serum/2% Bovine Serum Albumin/0.2% Fish Gelatine in TBS) for 30 min. The sections were then incubated with a primary, preferably biotinylated, anti-oxMIF Antibody (biotinylated-RAM9) in primary antibody dilution buffer (2% Bovine Serum Albumin/0.2% Fish Gelatine in TBS) at a concentration of 5 μg/ml for 60 min. After washing in TBS, the specimen was fixed in 4% PBS buffered formaldehyde for 15-20 min. Excess formaldehyde was removed by washing in TBS for 10 min. The staining was done using VECTASTAIN Elite ABC Reagent (HRP conjugated Streptavidin) for 30 min. Then the sections were extensively washed again 10 min in TBS. By using ImmPACT DAB Substrate for 10 minutes the staining was visualized as a brown color, which is reflected in FIG. 1A by a dark grey. The slides were washed in TBS and the nuclei were counterstained with Haematoxylin for 1-2 min. By washing the slides in tap water the color of the counter stain changes from violet to blue. […]

T1 sequence (P14174 2-115): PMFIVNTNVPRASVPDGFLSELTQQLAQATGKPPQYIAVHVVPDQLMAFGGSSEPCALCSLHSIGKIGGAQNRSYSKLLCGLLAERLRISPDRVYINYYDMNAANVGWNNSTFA

B1: anti-oxMIF antibody RAM9 (antibody, V domains shown)
VH: EVQLLESGGGLVQPGGSLRLSCAASGFTFSIYSMNWVRQAPGKGLEWVSSIGSSGGTTYYADSVKGRFTISRDNSKNTLYLQMNSLRAEDTAVYYCAGSQWLYGMDVWGQGTTVTVSS
VL: DIQMTQSPSSLSASVGDRVTITCRSSQRIMTYLNWYQQKPGKAPKLLIFVASHSQSGVPSRFRGSGSETDFTLTISGLQPEDSATYYCQQSFWTPLTFGGGTKVEIKR
notes: also called biotinylated-RAM9
  binding result: binds
